Data published in paper PMC4860158 (Journal of neurochemistry, 2016).

Molecular target: the molecule itself
Assay: SEC

B1: Gloeobacter violaceus ligand-gated ion channel (GLIC), wild type, pentameric assembly (natural protein, UniProt Q7NDN8 44-359, looked up)
chain: QDMVSPPPPIADEPLTVNTGIYLIECYSLDDKAETFKVNAFLSLSWKDRRLAFDPVRSGVRVKTYEPEAIWIPEIRFVNVENARDADVVDISVSPDGTVQYLERFSARVLSPLDFRRYPFDSQTLHIYLIVRSVDTRNIVLAVDLEKVGKNDDVFLTGWDIESFTAVVKPANFALEDRLESKLDYQLRISRQYFSYIPNIILPMLFILFISWTAFWSTSYEANVTLVVSTLIAHIAFNILVETNLPKTPYMTYTGAIIFMIYLFYFVAVIEVTVQHYLKVESQPARAASITRASRIAFPVVFLLANIILAFLFFGF
Q: Which “stoichiometry N” value does the source give for B1 here?
A: 5
